Assay results taken from the domain aggregation screens of Martell et al. (2025).

Assay: soluble fraction after stress (log2 fold change); higher = more stays soluble; pooled small domains, quantitative proteomics
Conditions: stress: 75 degC
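Note: 20 min heating vs room temperature control held 20 min.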

Row | Sequence | soluble fraction (log2)
1 | HMQDSIYYAQYRINIRNMPSSEGMVISRASVGEALEVLDWQEQWSKVRKQSGVEGYVASRLLTK | -2.34
2 | HMQDTIDLVIQVNGKLRGQMNVPKDTDRATIEQLAINLENVQKIVAGNAIKKIIIVPGRLINIVVSKNL | -2.78
3 | HMQDTYQVKLLTNLNIRKSPNGTIVQKGGAKKGIIYTIVETSGTWGRLKSNAGWISVSDKYVTK | -3.58
4 | HMQDVKRYLVNSNQLNVRTGPGKEFEISESLNKGDAVTLLHKESNGWWEVITSTGQGYVYSSMLTKDPW | -0.735
5 | HMQDVVERIKKYKQLFSITSEELSKRSGIPLGTLNKILSSSTKSIKTETLAAIAKGLDVSVSDLVGREK | -0.251
6 | HMQEAGKWLKKLRTERKITLEQLSKKTGLSVGFLSQFERGLTSIAIDTLEKIAAVFNVTIDYFISP | 0.0548
7 | HMQEEFVAPDVKDGAIVLHKAFGEGTVTKIDKAQKHIRVTFGVGEKTFIFPDAFKQGFLRMKG | 0.303
8 | HMQEERLTFDTLLGISGIGPRLALAVLSRFTPGSLAAAVDAGDTKAFSAVPGVGNRTASRIILELKGKL | -0.748
9 | HMQEGPGLVPDFRGQTMREVLRGGQSLGVRVAVDGTGLAVAQTPEPGSPLNKVSQVTVSFRPP | 0.0233
10 | HMQEINLIGVTGNDLERSALVKLLDGEIIKLSVGDNLNGGRVVDISAVTLTYLKSGQSITLKLPK | -2.9
11 | HMQELGVISEGKYNIELNMVSWNDREPKYDIRSWAPDHSRMGKGISLTEEEMERLVELWNTRNE | -0.441
12 | HMQELKWERNYKLVQDYIKQYGVLPSKNTKYANVSIGRWLTNQHELVKEDNLAPERFEKIKELDT | -0.297
13 | HMQENDLGAVEKIVDDVLHDPKNAQAVADFKAGSEKVLGFLTGQVMKASRGKANPSVVQEVLRQKLKN | -0.314
14 | HMQENVIIYPNPTKSVIYLSEKVEFILYNILGEIIFIGDNNKIDLNSFDNGVYIFESGNVRTQIIK | 0.0395
15 | HMQEQIVQGIVKYFDAEKQFGFIAGDDGVDRFFNAKSIQGNAVKTGDRVRFLAISHIRGPRALKISA | -1.24
16 | HMQEQSSYVGQFGTAATTLRPSGTVELEDGTRIDVVTVGEFIEKGEPVQVVRKDGTWLVVEKRRSK | 0.976
17 | HMQERKYTVSFNTNGGSTINDQKITSGNVIISPGAPKRSGYTFVGWYYHGQPFDLNTKINQDYVLVAKWIK | -2.49
18 | HMQETILFGQQKAINNLSSDTGLSENDLDSYLKKRYKKPLYQLTQSEGADIINGFQDGSLSKNSILDYIKP | 0.173
19 | HMQEVKVRLKPDYLGEVLIKVISDKGELKAELFVSNSQVRSLLRAYAVEFQNQIRDQGYNFSEINVYR | -0.738
20 | HMQFAEIPNFSEMALQILRLQADGLSITKIAEALHMNPRTVKYHAQENYRKLQASNKSEALLAARNLNL | -1.85

Row | Sequence | soluble fraction (log2)
21 | HMQFEIGDTVRVHVNIREGERERVQMFEGTVIAKRGSGVSETFTVRRVSYGVGVERVFPVNSPNV | 0.437
22 | HMQFETVQDAFNHYRNASLEEIESRAAEIKGIIESDPEADVRALNIEIEGLHQAKQNILEKQKTK | -0.179
23 | HMQFLGKVTVTHARQANLRAQPSMDAAIVGKVNPGEVYNVVSIPKTSWYEIQLQNGKTVFIAAGMVSFRM | -0.441
24 | HMQFSAVVLDMETRRQVAGVAVYINPKGVVKTDMRGRFVIDGAFNSVTLVRQGYESLTLERSEMTDSIWM | -1.64
25 | HMQGEASDAQLKAIFAIARKLGITDDFEVHRKASRLAGVPEPEVLPSLKSLTYAQASAVIKALQEELE | 0.248
26 | HMQGENDVTIDPKKLTIGDLAKEISKIEDSEELNNILVAEKEGKGRKGAINAITERIENVSGGTG | 0.0455
27 | HMQGLIGEQKAIQIALSRVPGAKPEHVRELKLDYDDGMQLYEGEIFYNFREYEFEINAVTGEVVGWEI | -1.01
28 | HMQHRSRALHLQEELVRRYYDQAIAPFMIFWEMKANVTLDQLKELRAVVSPSLNEHPYTKQLDEYIRLAE | -0.595
29 | HMQIEQVDYGTFMTMIDDKKIDKVEIKDNQILFIGKDDNKKYKTGIVQDPQLAERLHASGAVFSQDI | 0.261
30 | HMQIIGEQNQKDFIALFGAILRMRNLLLSFDEFKGNELISERDLQDYLGRYQDLRDEWRNKRRER | -0.0814
31 | HMQINDSSVVQKAVNDVIDQNSKAVSDYWDGKEGAAKFLMGQVMKLTRGQANPDLANQLILTRLQQERV | 0.437
32 | HMQISDEAALLAIVDRVIADNQGPLANYLGGKQSLLGWFVGQVMRATRGQAIPAVVNRLVGERLAAQREE | -0.877
33 | HMQISDESQLREVVSKILEENEQSVIDYKNGKTRAMGFIIGQVMKATRGKANPQLVNEIVKEMLDE | 0.0956
34 | HMQISDTASIQEIAKEIIKSNPKAVEDYKKGKENALQFLVGQLMTKTKGTVHPGAARTILGDILK | -0.0025
35 | HMQISDTSELEAVVQDILKANMDVVAKIKAGKTNSANFLMGQVMKLTKGRAKPDTVLQLILDAVKQ | -0.943
36 | HMQISLAAARVNAGLTQEEVAKAMKVGKQTIVSWEKGNSEPKMSQSRELSELYKIPLDYIFYP | -0.5
37 | HMQITDSGAIETIIDKIIADNPGQVTQYLSGKDKVFGFFVGQTMKASQGKANPAEVNKILQEKLK | -0.0499
38 | HMQITQSSEPIDVSALRLGMFIHLEGGWLSHPFPRSSFKITSEDQLVTLRSLGISVLRWSPELSDPE | -3.52
39 | HMQIVPVDYSTFMQSIDDKTVDHVEIQSNQILYTVKDDHKKYKTGIMNDPTLAQRLMESGATFTQD | 0.12
